Data as given in the supplement of paper PMC11908140.

B1: library; numbered along this chain (parent)
chain: MRKPRAAVGSGHRKQAASQEGRQKHAKNNSQAKPSACDGLARQPEEVVLQASVSSYHLFRDVAEVTAFRGSLLSWYDQEKRDLPWRRRAEDEMDLDRRAYAVWVSEVMLQQTQVATVINYYTGWMQKWPTLQDLASASLEEVNQLWAGLGYYSRGRRLQEGARKVVEELGGHMPRTAETLQQLLPGVGRYTAGAIASIAFGQATGVVDGNVARVLCRVRAIGADPSSTLVSQQLWGLAQQLVDPARPGDFNQAAMELGATVCTPQRPLCSQCPVESLCRARQRVEQEQLLASGSLSGSPDVEECAPNTGQCHLCLPPSEPWDQTLGVVNFPRKASRKPPREESSATCVLEQPGALGAQILLVQRPNSGLLAGLWEFPSVTWEPSEQLQRKALLQELQRWAGPLPATHLRHLGEVVHTFSHIKLTYQVYGLALEGQTPVTTVPPGARWLTQEEFHTAAVSTAMKKVFRVYQGQQPGTCMGSKRSQVSSPCSRKKPRMGQQVLDNFFRSHISTDAHSLNSAAQ

Variants of: B1
Experiment: 8OG:A repair function score (normalized; synonymous = 0, nonsense = -1) (normalized log-likelihood score); higher = more repair activity (WT-like)
Conditions: with 8OG:A DNA repair reporter (GFP) in HEK-293 MUTYH KO cells
Outline: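 Per-tile Rosace fitness scores were converted to a normalized repair function score anchored on synonymous and nonsense distributions. That scale puts synonymous medians at 0 and nonsense medians at -1. Variants with starting counts under 300 counts per million were discarded. Input came from sorting viable mCherry+ MUTYH knockout HEK-293 cells, carrying lentiviral MUTYH cDNA NNN codon-scan libraries in 10 pg/ml doxycycline and an 8OG:A GFP repair reporter, into GFP+ and GFP− bins at 72 h, three replicates per tile, followed by tile amplicon sequencing.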
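Further: cells sorted at 72 h after reporter transfection.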

Variant	8OG:A repair function score
MRKPRAAVGSGHRKQAASQEGRQKHAKNNSQAKPSACDGLARQPEEVVLQASVSSYHLFRDVAEVTAFRGSLLSWYDQEKRDLPWRRRAEDEMDLDRRAYAVWVSEVMLQQTQVATVINYYTGWMQKWPTLQDLASASLEEVNQLWAGLGYYSRGRRLQEGARKVVEELGGHMPRTAETLQQLLPGVGRYTAGAIASIAFGQATGVVDGNVARVLCRVRAIGADPSSTLVSQQLWGLAQQLVDPARPGDFKQAAMELGATVCTPQRPLCSQCPVESLCRARQRVEQEQLLASGSLSGSPDVEECAPNTGQCHLCLPPSEPWDQTLGVVNFPRKASRKPPREESSATCVLEQPGALGAQILLVQRPNSGLLAGLWEFPSVTWEPSEQLQRKALLQELQRWAGPLPATHLRHLGEVVHTFSHIKLTYQVYGLALEGQTPVTTVPPGARWLTQEEFHTAAVSTAMKKVFRVYQGQQPGTCMGSKRSQVSSPCSRKKPRMGQQVLDNFFRSHISTDAHSLNSAAQ [N251K]	-0.983
MRKPRAAVGSGHRKQAASQEGRQKHAKNNSQAKPSACDGLARQPEEVVLQASVSSYHLFRDVAEVTAFRGSLLSWYDQEKRDLPWRRRAEDEMDLDRRAYAVWVSEVMLQQTQVATVINYYTGWMQKWPTLQDLASASLEEVNQLWAGLGYYSRGRRLQEGARKVVEELGGHMPRTAETLQQLLPGVGRYTAGAIASIAFGQATGVVDGNVARVLCRVRAIGADPSSTLVSQQLWGLAQQLVDPARPGDFHQAAMELGATVCTPQRPLCSQCPVESLCRARQRVEQEQLLASGSLSGSPDVEECAPNTGQCHLCLPPSEPWDQTLGVVNFPRKASRKPPREESSATCVLEQPGALGAQILLVQRPNSGLLAGLWEFPSVTWEPSEQLQRKALLQELQRWAGPLPATHLRHLGEVVHTFSHIKLTYQVYGLALEGQTPVTTVPPGARWLTQEEFHTAAVSTAMKKVFRVYQGQQPGTCMGSKRSQVSSPCSRKKPRMGQQVLDNFFRSHISTDAHSLNSAAQ [N251H]	-0.943
MRKPRAAVGSGHRKQAASQEGRQKHAKNNSQAKPSACDGLARQPEEVVLQASVSSYHLFRDVAEVTAFRGSLLSWYDQEKRDLPWRRRAEDEMDLDRRAYAVWVSEVMLQQTQVATVINYYTGWMQKWPTLQDLASASLEEVNQLWAGLGYYSRGRRLQEGARKVVEELGGHMPRTAETLQQLLPGVGRYTAGAIASIAFGQATGVVDGNVARVLCRVRAIGADPSSTLVSQQLWGLAQQLVDPARPGDFGQAAMELGATVCTPQRPLCSQCPVESLCRARQRVEQEQLLASGSLSGSPDVEECAPNTGQCHLCLPPSEPWDQTLGVVNFPRKASRKPPREESSATCVLEQPGALGAQILLVQRPNSGLLAGLWEFPSVTWEPSEQLQRKALLQELQRWAGPLPATHLRHLGEVVHTFSHIKLTYQVYGLALEGQTPVTTVPPGARWLTQEEFHTAAVSTAMKKVFRVYQGQQPGTCMGSKRSQVSSPCSRKKPRMGQQVLDNFFRSHISTDAHSLNSAAQ [N251G]	-0.951
MRKPRAAVGSGHRKQAASQEGRQKHAKNNSQAKPSACDGLARQPEEVVLQASVSSYHLFRDVAEVTAFRGSLLSWYDQEKRDLPWRRRAEDEMDLDRRAYAVWVSEVMLQQTQVATVINYYTGWMQKWPTLQDLASASLEEVNQLWAGLGYYSRGRRLQEGARKVVEELGGHMPRTAETLQQLLPGVGRYTAGAIASIAFGQATGVVDGNVARVLCRVRAIGADPSSTLVSQQLWGLAQQLVDPARPGDFAQAAMELGATVCTPQRPLCSQCPVESLCRARQRVEQEQLLASGSLSGSPDVEECAPNTGQCHLCLPPSEPWDQTLGVVNFPRKASRKPPREESSATCVLEQPGALGAQILLVQRPNSGLLAGLWEFPSVTWEPSEQLQRKALLQELQRWAGPLPATHLRHLGEVVHTFSHIKLTYQVYGLALEGQTPVTTVPPGARWLTQEEFHTAAVSTAMKKVFRVYQGQQPGTCMGSKRSQVSSPCSRKKPRMGQQVLDNFFRSHISTDAHSLNSAAQ [N251A]	-0.847
MRKPRAAVGSGHRKQAASQEGRQKHAKNNSQAKPSACDGLARQPEEVVLQASVSSYHLFRDVAEVTAFRGSLLSWYDQEKRDLPWRRRAEDEMDLDRRAYAVWVSEVMLQQTQVATVINYYTGWMQKWPTLQDLASASLEEVNQLWAGLGYYSRGRRLQEGARKVVEELGGHMPRTAETLQQLLPGVGRYTAGAIASIAFGQATGVVDGNVARVLCRVRAIGADPSSTLVSQQLWGLAQQLVDPARPGDFEQAAMELGATVCTPQRPLCSQCPVESLCRARQRVEQEQLLASGSLSGSPDVEECAPNTGQCHLCLPPSEPWDQTLGVVNFPRKASRKPPREESSATCVLEQPGALGAQILLVQRPNSGLLAGLWEFPSVTWEPSEQLQRKALLQELQRWAGPLPATHLRHLGEVVHTFSHIKLTYQVYGLALEGQTPVTTVPPGARWLTQEEFHTAAVSTAMKKVFRVYQGQQPGTCMGSKRSQVSSPCSRKKPRMGQQVLDNFFRSHISTDAHSLNSAAQ [N251E]	-1.02
MRKPRAAVGSGHRKQAASQEGRQKHAKNNSQAKPSACDGLARQPEEVVLQASVSSYHLFRDVAEVTAFRGSLLSWYDQEKRDLPWRRRAEDEMDLDRRAYAVWVSEVMLQQTQVATVINYYTGWMQKWPTLQDLASASLEEVNQLWAGLGYYSRGRRLQEGARKVVEELGGHMPRTAETLQQLLPGVGRYTAGAIASIAFGQATGVVDGNVARVLCRVRAIGADPSSTLVSQQLWGLAQQLVDPARPGDFIQAAMELGATVCTPQRPLCSQCPVESLCRARQRVEQEQLLASGSLSGSPDVEECAPNTGQCHLCLPPSEPWDQTLGVVNFPRKASRKPPREESSATCVLEQPGALGAQILLVQRPNSGLLAGLWEFPSVTWEPSEQLQRKALLQELQRWAGPLPATHLRHLGEVVHTFSHIKLTYQVYGLALEGQTPVTTVPPGARWLTQEEFHTAAVSTAMKKVFRVYQGQQPGTCMGSKRSQVSSPCSRKKPRMGQQVLDNFFRSHISTDAHSLNSAAQ [N251I]	-0.889
MRKPRAAVGSGHRKQAASQEGRQKHAKNNSQAKPSACDGLARQPEEVVLQASVSSYHLFRDVAEVTAFRGSLLSWYDQEKRDLPWRRRAEDEMDLDRRAYAVWVSEVMLQQTQVATVINYYTGWMQKWPTLQDLASASLEEVNQLWAGLGYYSRGRRLQEGARKVVEELGGHMPRTAETLQQLLPGVGRYTAGAIASIAFGQATGVVDGNVARVLCRVRAIGADPSSTLVSQQLWGLAQQLVDPARPGDFCQAAMELGATVCTPQRPLCSQCPVESLCRARQRVEQEQLLASGSLSGSPDVEECAPNTGQCHLCLPPSEPWDQTLGVVNFPRKASRKPPREESSATCVLEQPGALGAQILLVQRPNSGLLAGLWEFPSVTWEPSEQLQRKALLQELQRWAGPLPATHLRHLGEVVHTFSHIKLTYQVYGLALEGQTPVTTVPPGARWLTQEEFHTAAVSTAMKKVFRVYQGQQPGTCMGSKRSQVSSPCSRKKPRMGQQVLDNFFRSHISTDAHSLNSAAQ [N251C]	-0.884
MRKPRAAVGSGHRKQAASQEGRQKHAKNNSQAKPSACDGLARQPEEVVLQASVSSYHLFRDVAEVTAFRGSLLSWYDQEKRDLPWRRRAEDEMDLDRRAYAVWVSEVMLQQTQVATVINYYTGWMQKWPTLQDLASASLEEVNQLWAGLGYYSRGRRLQEGARKVVEELGGHMPRTAETLQQLLPGVGRYTAGAIASIAFGQATGVVDGNVARVLCRVRAIGADPSSTLVSQQLWGLAQQLVDPARPGDFFQAAMELGATVCTPQRPLCSQCPVESLCRARQRVEQEQLLASGSLSGSPDVEECAPNTGQCHLCLPPSEPWDQTLGVVNFPRKASRKPPREESSATCVLEQPGALGAQILLVQRPNSGLLAGLWEFPSVTWEPSEQLQRKALLQELQRWAGPLPATHLRHLGEVVHTFSHIKLTYQVYGLALEGQTPVTTVPPGARWLTQEEFHTAAVSTAMKKVFRVYQGQQPGTCMGSKRSQVSSPCSRKKPRMGQQVLDNFFRSHISTDAHSLNSAAQ [N251F]	-1.03
MRKPRAAVGSGHRKQAASQEGRQKHAKNNSQAKPSACDGLARQPEEVVLQASVSSYHLFRDVAEVTAFRGSLLSWYDQEKRDLPWRRRAEDEMDLDRRAYAVWVSEVMLQQTQVATVINYYTGWMQKWPTLQDLASASLEEVNQLWAGLGYYSRGRRLQEGARKVVEELGGHMPRTAETLQQLLPGVGRYTAGAIASIAFGQATGVVDGNVARVLCRVRAIGADPSSTLVSQQLWGLAQQLVDPARPGDFDQAAMELGATVCTPQRPLCSQCPVESLCRARQRVEQEQLLASGSLSGSPDVEECAPNTGQCHLCLPPSEPWDQTLGVVNFPRKASRKPPREESSATCVLEQPGALGAQILLVQRPNSGLLAGLWEFPSVTWEPSEQLQRKALLQELQRWAGPLPATHLRHLGEVVHTFSHIKLTYQVYGLALEGQTPVTTVPPGARWLTQEEFHTAAVSTAMKKVFRVYQGQQPGTCMGSKRSQVSSPCSRKKPRMGQQVLDNFFRSHISTDAHSLNSAAQ [N251D]	-0.947
MRKPRAAVGSGHRKQAASQEGRQKHAKNNSQAKPSACDGLARQPEEVVLQASVSSYHLFRDVAEVTAFRGSLLSWYDQEKRDLPWRRRAEDEMDLDRRAYAVWVSEVMLQQTQVATVINYYTGWMQKWPTLQDLASASLEEVNQLWAGLGYYSRGRRLQEGARKVVEELGGHMPRTAETLQQLLPGVGRYTAGAIASIAFGQATGVVDGNVARVLCRVRAIGADPSSTLVSQQLWGLAQQLVDPARPGDWNQAAMELGATVCTPQRPLCSQCPVESLCRARQRVEQEQLLASGSLSGSPDVEECAPNTGQCHLCLPPSEPWDQTLGVVNFPRKASRKPPREESSATCVLEQPGALGAQILLVQRPNSGLLAGLWEFPSVTWEPSEQLQRKALLQELQRWAGPLPATHLRHLGEVVHTFSHIKLTYQVYGLALEGQTPVTTVPPGARWLTQEEFHTAAVSTAMKKVFRVYQGQQPGTCMGSKRSQVSSPCSRKKPRMGQQVLDNFFRSHISTDAHSLNSAAQ [F250W]	-0.258
MRKPRAAVGSGHRKQAASQEGRQKHAKNNSQAKPSACDGLARQPEEVVLQASVSSYHLFRDVAEVTAFRGSLLSWYDQEKRDLPWRRRAEDEMDLDRRAYAVWVSEVMLQQTQVATVINYYTGWMQKWPTLQDLASASLEEVNQLWAGLGYYSRGRRLQEGARKVVEELGGHMPRTAETLQQLLPGVGRYTAGAIASIAFGQATGVVDGNVARVLCRVRAIGADPSSTLVSQQLWGLAQQLVDPARPGDYNQAAMELGATVCTPQRPLCSQCPVESLCRARQRVEQEQLLASGSLSGSPDVEECAPNTGQCHLCLPPSEPWDQTLGVVNFPRKASRKPPREESSATCVLEQPGALGAQILLVQRPNSGLLAGLWEFPSVTWEPSEQLQRKALLQELQRWAGPLPATHLRHLGEVVHTFSHIKLTYQVYGLALEGQTPVTTVPPGARWLTQEEFHTAAVSTAMKKVFRVYQGQQPGTCMGSKRSQVSSPCSRKKPRMGQQVLDNFFRSHISTDAHSLNSAAQ [F250Y]	0.0779
MRKPRAAVGSGHRKQAASQEGRQKHAKNNSQAKPSACDGLARQPEEVVLQASVSSYHLFRDVAEVTAFRGSLLSWYDQEKRDLPWRRRAEDEMDLDRRAYAVWVSEVMLQQTQVATVINYYTGWMQKWPTLQDLASASLEEVNQLWAGLGYYSRGRRLQEGARKVVEELGGHMPRTAETLQQLLPGVGRYTAGAIASIAFGQATGVVDGNVARVLCRVRAIGADPSSTLVSQQLWGLAQQLVDPARPGDVNQAAMELGATVCTPQRPLCSQCPVESLCRARQRVEQEQLLASGSLSGSPDVEECAPNTGQCHLCLPPSEPWDQTLGVVNFPRKASRKPPREESSATCVLEQPGALGAQILLVQRPNSGLLAGLWEFPSVTWEPSEQLQRKALLQELQRWAGPLPATHLRHLGEVVHTFSHIKLTYQVYGLALEGQTPVTTVPPGARWLTQEEFHTAAVSTAMKKVFRVYQGQQPGTCMGSKRSQVSSPCSRKKPRMGQQVLDNFFRSHISTDAHSLNSAAQ [F250V]	-0.797
